Our source for the Kd values is patent publication US20230101046A1, “[…] LYMPHOMA KINASE […] ANTIGEN RECEPTORS AND METHODS OF USE” (The Children's Medical Center Corporation, published 2023).

Numbering of substitutions follows the chain as printed.

First the molecules themselves.
B1: ALK Antibody #1 (antibody, V domains shown)
VH: QVQLQQSGAELVKPGASVKISCKASGYAFSSYWMNWVKQRPGKGLEWIGQIYPGDGDTNYNGKFKGKATLTADKSSSTAYMQLSSLTSEDSAVYFCASYYYGSKAYWGQGTLVTVSA
VL: DIQMTQSPASLAASVGETVTITCRASENIYYSLAWYQQKQGKSPQLLIYNANSLEDGVPSRFSGSGSGTQYSMKINSMQPEDTATYFCKQAYDVPFTFGSGTKLEIKR
B2: ALK Antibody #6 (antibody, V domains shown)
VH: DVKLVESGEGLVKPGGSLKLSCAASGFTFSSYAMSWVRQTPEKRLEWVTYISSGGDYIYYADTVKGRFTISRDNARNTLYLQMSSLKSEDTAMYYCTRERIWLRRFFDVWGTGTTVTVSS
VL: DIVMTQSQKFMSTSVGDRVSITCKASQNVGTAVAWYQLKPGQSPKLLIYSASNRFTGVPDRFTGSGSGTDFTLTISNMQSEDLADYFCQQYSSYPLTFGSGTKLEIKR
B3: ALK Antibody #4 (antibody, V domains shown)
VH: QVQLQQSGAELVKPGASVKISCKASGYAFSSYWVNWVKQRPGKGLEWIGQIYPGDGDTNYNGKFKGKATLTADKSSSTAYMQLSSLTSEDSAVYFCARSRGYFYGSTYDSWGQGTTLTVSS
VL: not shown
B4: ALK Antibody #3 (antibody, V domains shown)
VH: QVQLQQSGAELAKPGASVKLSCKASGYTFTNYWMHWVKQRPGQGLEWIGYINPSSGYTKYNQKFKDKATLTADKSSSTAYMQLSSLTYEDSAVYYCARDYYGSSSWFAYWGQGTLVTVSA
VL: DIVMTQSQRFMSTSVGDRVSVTCKASQNVGTNVAWYQQKPGQSPKALIYSASYRYSGVPDRFTGSGSGTDFTLTVSNVQSEDLAEYFCQQYNSYPYMYTFGGGTKLEIKR
B5: ALK Antibody #5 (antibody, V domains shown)
VH: B4 VH with N31S, N52K
VL: B4 VL with V75I
B6: ALK Antibody #7 (antibody, V domains shown)
VH: B4 VH with N31S, Y88F
VL: B4 VL with R9K, Q42H, V75I, Q90R, Y98F

The target of this assay is human ALK receptor (human). Description: apparent KD (KD^app), method not stated.
human ALK receptor (human), sequence (chain, as listed by the source): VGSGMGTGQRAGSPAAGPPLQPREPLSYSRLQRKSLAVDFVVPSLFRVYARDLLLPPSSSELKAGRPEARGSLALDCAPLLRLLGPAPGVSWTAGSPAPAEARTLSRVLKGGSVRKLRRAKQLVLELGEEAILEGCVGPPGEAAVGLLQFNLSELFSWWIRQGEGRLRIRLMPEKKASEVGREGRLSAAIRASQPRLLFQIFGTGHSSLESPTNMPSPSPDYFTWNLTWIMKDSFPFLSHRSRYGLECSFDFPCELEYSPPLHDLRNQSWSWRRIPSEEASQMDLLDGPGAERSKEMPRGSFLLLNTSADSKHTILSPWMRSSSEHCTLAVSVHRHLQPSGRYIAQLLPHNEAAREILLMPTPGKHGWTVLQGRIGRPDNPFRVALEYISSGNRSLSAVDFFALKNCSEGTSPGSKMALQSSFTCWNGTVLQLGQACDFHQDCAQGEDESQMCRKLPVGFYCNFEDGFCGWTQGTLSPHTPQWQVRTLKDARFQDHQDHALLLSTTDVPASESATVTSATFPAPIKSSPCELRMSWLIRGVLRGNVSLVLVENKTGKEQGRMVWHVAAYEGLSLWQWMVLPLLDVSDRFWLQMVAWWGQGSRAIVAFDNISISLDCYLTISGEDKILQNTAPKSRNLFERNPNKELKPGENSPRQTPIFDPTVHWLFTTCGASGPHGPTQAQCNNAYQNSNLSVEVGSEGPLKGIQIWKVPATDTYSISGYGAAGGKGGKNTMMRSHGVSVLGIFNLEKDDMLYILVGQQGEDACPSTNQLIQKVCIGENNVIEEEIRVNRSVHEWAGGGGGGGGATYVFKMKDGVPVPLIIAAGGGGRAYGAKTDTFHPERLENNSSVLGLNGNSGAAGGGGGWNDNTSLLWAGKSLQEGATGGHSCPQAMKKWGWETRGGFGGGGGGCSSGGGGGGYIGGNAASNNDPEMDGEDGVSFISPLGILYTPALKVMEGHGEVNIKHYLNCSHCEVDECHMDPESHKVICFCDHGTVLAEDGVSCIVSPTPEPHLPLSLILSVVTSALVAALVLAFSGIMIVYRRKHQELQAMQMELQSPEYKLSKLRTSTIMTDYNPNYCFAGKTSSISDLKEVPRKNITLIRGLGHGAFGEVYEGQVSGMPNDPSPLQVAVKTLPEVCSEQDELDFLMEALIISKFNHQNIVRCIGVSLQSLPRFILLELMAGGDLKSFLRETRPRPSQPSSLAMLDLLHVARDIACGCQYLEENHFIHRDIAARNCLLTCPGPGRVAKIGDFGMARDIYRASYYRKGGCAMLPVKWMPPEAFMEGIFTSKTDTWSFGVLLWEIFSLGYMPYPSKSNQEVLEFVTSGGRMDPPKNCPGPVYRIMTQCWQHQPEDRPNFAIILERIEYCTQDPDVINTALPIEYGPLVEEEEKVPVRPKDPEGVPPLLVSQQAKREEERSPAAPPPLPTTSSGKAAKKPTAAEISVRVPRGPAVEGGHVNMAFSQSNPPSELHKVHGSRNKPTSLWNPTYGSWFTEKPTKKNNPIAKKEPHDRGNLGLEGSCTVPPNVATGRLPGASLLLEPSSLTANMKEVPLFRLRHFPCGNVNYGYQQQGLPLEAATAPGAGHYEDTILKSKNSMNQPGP
On to B1, for which the Kd amounted to 0.35 nM.

B2: the Kd amounted to 0.4 nM.

Consider B3, for which the Kd stood at 0.5 nM.

Consider B4, for which the Kd stood at 0.5 nM.

As to B5, the Kd was 0.5 nM.

Consider B6, for which the Kd was 0.5 nM.
